# Measured values from article PMC3041725.
# Assays:
# [1] = biological target: VC-Exd fusion protein, expressed in Drosophila embryos (Drosophila melanogaster) (UniProt P40427); experiment: split reporter (BiFC, NanoBiT); split Venus (VN 1-173, VC 155-238) BiFC in living Drosophila embryos; fusion proteins expressed by UAS/Gal4 (abdA-Gal4, en-Gal4, btl-Gal4 and others); embryos kept at 4°C for 28 h before confocal imaging
# [2] = biological target: VN-Exd fusion protein, expressed in Drosophila embryos (Drosophila melanogaster) (UniProt P40427); experiment: split reporter (BiFC, NanoBiT); competition against split Venus BiFC in living Drosophila embryos: an unfused ('cold') protein co-expressed with the two fusion proteins
# VN-Exd fusion protein, expressed in Drosophila embryos (Drosophila melanogaster), sequence (P40427 whole entry, the tested form may be a part): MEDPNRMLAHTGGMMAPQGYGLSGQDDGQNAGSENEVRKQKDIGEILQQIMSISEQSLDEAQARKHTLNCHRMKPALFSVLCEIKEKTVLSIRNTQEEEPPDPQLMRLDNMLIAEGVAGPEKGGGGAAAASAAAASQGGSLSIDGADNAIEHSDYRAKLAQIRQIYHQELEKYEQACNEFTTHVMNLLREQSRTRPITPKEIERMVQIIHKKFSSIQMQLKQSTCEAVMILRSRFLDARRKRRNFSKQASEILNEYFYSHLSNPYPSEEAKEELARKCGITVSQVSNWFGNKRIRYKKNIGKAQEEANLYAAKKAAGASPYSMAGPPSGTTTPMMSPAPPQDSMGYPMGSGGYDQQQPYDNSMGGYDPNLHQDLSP
# VN-AbdA fusion protein, expressed in Drosophila embryos, P29555 1-590 (natural protein; other documents disagree on this pair), sequence (P29555 whole entry, the tested form may be a part): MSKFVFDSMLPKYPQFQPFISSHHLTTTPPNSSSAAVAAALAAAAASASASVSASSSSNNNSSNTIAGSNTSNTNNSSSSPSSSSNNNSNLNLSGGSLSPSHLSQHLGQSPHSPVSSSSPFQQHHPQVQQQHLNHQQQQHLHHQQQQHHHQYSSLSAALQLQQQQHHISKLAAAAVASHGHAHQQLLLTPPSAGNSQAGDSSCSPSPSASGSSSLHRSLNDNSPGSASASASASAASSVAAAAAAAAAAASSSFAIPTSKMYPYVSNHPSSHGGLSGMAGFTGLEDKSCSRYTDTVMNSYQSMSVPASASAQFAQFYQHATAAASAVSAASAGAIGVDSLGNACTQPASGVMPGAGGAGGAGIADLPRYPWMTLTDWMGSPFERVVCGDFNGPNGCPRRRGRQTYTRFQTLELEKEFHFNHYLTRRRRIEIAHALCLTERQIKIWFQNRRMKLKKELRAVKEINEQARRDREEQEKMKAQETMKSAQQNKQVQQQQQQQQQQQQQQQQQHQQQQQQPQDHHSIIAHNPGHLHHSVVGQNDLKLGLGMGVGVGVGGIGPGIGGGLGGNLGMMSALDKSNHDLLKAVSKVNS
# AbdominalA (AbdA), unfused parental wild type protein, expressed in Drosophila embryos, P29555 1-590 (natural protein; other documents disagree on this pair), sequence (P29555 whole entry, the tested form may be a part): as above
# VC-Exd fusion protein, expressed in Drosophila embryos (Drosophila melanogaster), sequence (P40427 whole entry, the tested form may be a part): as the sequence (P40427 whole entry, the tested form may be a part) above
Substance,fold weaker BiFC signal than VC-AbdA/VN-Exd [1] [fold],percent loss of BiFC between VC-AbdA and VN-Exd [2] [%]
"VN-AbdA fusion protein, expressed in Drosophila embryos, P29555 1-590 (natural protein; other documents disagree on this pair)",5,–
"AbdominalA (AbdA), unfused parental wild type protein, expressed in Drosophila embryos, P29555 1-590 (natural protein; other documents disagree on this pair)",–,80
